The record followed here is PMC6520018.

Common to all, as to assay: EMSA
Background: A gel shift assay detects complexes by their altered migration in electrophoresis.

Series [1] concerns the target T1, AtALBA2 (Arabidopsis thaliana, UniProt O22969 1-130).
T1 sequence: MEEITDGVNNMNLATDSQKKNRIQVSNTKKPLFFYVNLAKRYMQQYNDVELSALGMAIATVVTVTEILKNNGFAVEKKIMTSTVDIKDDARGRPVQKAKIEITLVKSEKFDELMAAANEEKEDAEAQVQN

The next series addresses T2, AtALBA2 K30E (Arabidopsis thaliana, UniProt O22969 1-130, K30E).
T2 sequence: T1 sequence with K30E

Series [2] concerns the target T1, AtALBA2. This is another data set of the same source.

Residue numbers refer to the chain shown, from its start. Like-named read-outs stand apart in the source and are kept apart here.

B1: dsDNA (EMSA-DNA) (dsDNA)
DNA 1: TCGAATCTCATCATCGCCGC
DNA 2: GCGGCGATGATGAGATTCGA
Regarding B1, the binding result is listed as “binds” with AtALBA2 [1] and “no binding” with AtALBA2 K30E.

B2: artificial R-loop (mixed)
DNA 1: GCTCGCAAACTACTTAGATGTCATCCGCGAGG
DNA 2: CCTCGCAAGCGGCGATGATGAGATTCGAAAGCGAGC
RNA: UCGAAUCUCAUCAUCGCCGC
Turning to B2, the binding result with AtALBA2 [2] is recorded as “binds”.
